Reference: article doi:10.1101/585943 (bioRxiv, 2019)

Target: the molecule itself
Test: cryo-EM structure

B1: SgrAI, type II restriction endonuclease, his-tagged wild type (enzyme, Streptomyces griseus)
chain: PFTYSIEATRNLATTERCIQDIRNAPVRNRSTQFQLAQQNMLAYTFGEVIPGFASAGINGMNYRDVIGRPVENAVTEGTHFFRDDFRVDSNAKAKVAGDIFEIVSSAVMWNCAARWNSLMVGEGWRSQPRYSRPTLSPSPRRQVAVLNLPRSFDWVSLLVPESQEVIEEFRAGLRKDGLGLPTSTPDLAVVVLPEEFQNDEMWREEIAGLTRPNQILLSGAYQRLQGRVQPGEISLAVAFKRSLRSDRLYQPLYEANVMQLLLEGKLGAPKVEFEVHTLAPEGTNAFVTYEAASLYGLAEGRSAVHRAIRELYVPPTAADLARRFFAFLNERMELVNG
- binding result: binds
